Tests used:
[1] = target: Tpm3.1-enveloped filamentous β-actin (human) (UniProt P60709); assay: stopped-flow light scattering; 4 μM NM-2B0 mixed with 0.5–4 μM bare actin or actin-Tpm complex, light scattering at 405 nm; 20 °C; 20 mM MOPS pH 7.0, 100 mM KCl, 5 mM MgCl2; no nucleotide; k+A from the slope, k−A from the y intercept, KA = k−A/k+A
[2] = target: Tpm1.12-enveloped filamentous β-actin (human | rat) (UniProt P60709); assay: as above
[3] = target: filamentous β-actin (human) (UniProt P60709); assay: co-sedimentation; 10 μM β-actin preincubated with 0–10 μM Tpm for 30 min at room temperature; 20 mM MOPS pH 7.0, 5 mM MgCl2, 100 mM KCl; SDS-PAGE densitometry of supernatant and pellet; Hill fit, apparent constants (K50%)
[4] = target: acto-NM-2B (filamentous β-actin with NM-2B–HMM) (human) (UniProt P60709); assay: co-sedimentation; 6:1 acto–Tpm mixture (6 μM β-actin, 1 μM Tpm) with 0–16 μM NM-2B–HMM, 30 min; 20 mM MOPS pH 7.0, 5 mM MgCl2, 50 mM KCl; pelleted 20 min at 100,000 × g; Hill fit

Kd [1] [µM] | Kd [2] [µM] | Kd [3] [µM] | Kd [4] [µM] | Substance
0.03 | 0.08 | – | – | single-headed construct NM-2B0 (motor domain of human NM-2B0, residues 1–782, two Dictyostelium discoideum α-actinin repeats, C-terminal octahistidine tag) (from UniProt P35580 1-782) (domain or fragment)
– | – | 0.1 | < 0.1 | Tpm1.8cy (b.–.b.d) (natural protein)
